Data set [1] deals with N[C@H](CCC(=O)O)C(=O)O. In words: purified protein. The settings on record: active site. The data set is classed as biochemical, Bacillus subtilis.
Data set [2] deals with glutamate racemase (RacE) (Bacillus subtilis, UniProt P94556). The format is biochemical.
Substrate in data set [3]: N[C@@H](CCC(=O)O)C(=O)O
The data set can be described thus: purified protein. The settings on record: active site, between Cys74 and Cys185.

Data on 3 molecules can be found in article PMC2882252 (Journal of the American Chemical Society, 2009).

For the molecule “glutamate racemase (RacE) T76A (Bacillus subtilis subsp. subtilis str. 168; T76A)”, in data set [1], the Michaelis constant (Km) is reported as 8.6 ± 1.4 mM. As to `O=C(O)c1cccc(C(=O)O)n1` [DPA, 2,6-pyridinedicarboxylic acid], in data set [2], the Ki was found to be 1970 ± 1160 µM.

B1: glutamate racemase (RacE) (Bacillus subtilis subsp. subtilis str. 168) (protein)
chain: MLEQPIGVIDSGVGGLTVAKEIMRQLPKENIIYVGDTKRCPYGPRPEEEVLQYTWELTNYLLENHHIKMLVIACNTATAIALDDIQRSVGIPVVGVIQPGARAAIKVTDNQHIGVIGTENTIKSNAYEEALLALNPDLKVENLACPLLVPFVESGKFLDKTADEIVKTSLYPLKDTSIDSLILGCTHYPILKEAIQRYMGEHVNIISSGDETAREVSTILSYKGLLNQSPIAPDHQFLTTGARDQFAKIADDWFGHEVGHVECISLQEPIKR
Consider B1, for which, in data set [3], the Michaelis constant (Km) is given as 14 ± 6 mM.
